Results on 21 molecules are retold here after US20220073643A1.

B1: 35E8D2 (antibody, V domains shown)
VH: QIQLVQSGPELKKPGETVRISCKASGYTFTTAGMQWVQKMPGKGLKWIGWINTHSRVPNFAEDFKGRFAFSLETSARIAYLQISNIKNEDMATYFCARLGKGNTMDFWGQGTSVTVSS
VL: DIVMTQSPSSLTVTVGEKVTMSCKSSQSLLNSGNQKNYLTWYQQKPGQPPKLLIYWASTRESGVPDRFTGSGSETDFTLTISSLQAEDLAVYYCQNSYSFPLTFGGGTNLEIK
B2: 424G9G3 (antibody, V domains shown)
VH: QVQLQQSGPEVVRPGASVKMSCKGSGYTLNNFWMHWVKQRPGQGLEWIGMIDTSNGETRLNQIFKDKATLTVDKSSKTAYMQLSSLTSEDSAVYYCAPYGNFADWGQGTTLTVSS
VL: DVLLTQTPLSLPVSLGDQASISCRSSQSIVYGNGNTYLEWYLQKPGQSPKLLIYKVSSRFSGVPDRFSGSGSGTDFTLKITKVEAEDLGVYYCFQGSHVPFTFGSGTKLEIK
B3: 61H12G10 (antibody, V domains shown)
VH: QVQLKESGPGLVAPSQSLSITCTVSGFSLTDYGVSWIRQPPGKGLEWLGVIWGGGSTYYNSALKSRLIISKDNSKSQVFLKMNSLQTDDTAIYYCAKHHYGNACDYWGQGTTLTVSS
VL: DIVMTQSPSSLTVTAGEKVTMSCKSSQSLFNSGNLKNYLTWYQQKPGQPPKLLICWASTRESGVPDRFTGSGSGTEFTLTISSVQAEDLAVYYCQNDYSYPFTFGSGTKLEIK
B4: 69D5C1 (antibody, V domains shown)
VH: EVKLVESGGGLVQPGGSRKLSCAASGFTFRDYGMAWVRQAPGKGPEWITFISNLAYSIYYADTVTGRFTISTENAKNTLYLEMSSLRSEDTAMYYCAVIYYGNSFAYWGQGTLVTV
VL: DIVLTQSPSSLTVTAGEKVTMSCKSSQSLLNSGNLRNYLTWYQQKPGQPPKLLIYWASTRESGVPDRFTGSGSGTDFTLTISSLQAEDLAIYYCQNGYSYPFTFGSGTKLEIK
B5: 420D5H5 (antibody, V domains shown)
VH: DVQLVESGGGLVQPGGSRKLSCAASGFTLSGFGMHWIRQTPEKGLEWVAYISSGSRPIYYVDTVEGRFTISRDNPKNTLFLQMTSLRSEDTAMYFCARFYYGNSFDHWGQGTLVTVSS
VL: DIVMTQSPSFLTVTAGEKVTMSCKSSQSLLNSGNQKNYLTWYQQKPGQPPKLLIYWASTRESGVPDRFTGSGSGTDFTLTIRGVQAEDLALYYCQNAYSFPLTFGAGTKLELK
B6: 421H4G3 (antibody, V domains shown)
VH: DVQLVESGGGLVQPGGSRKLSCAASGFSFSGFGLHWIRQTPEKGLEWVAYISSGSRPIYYADTVKGRFTISRDNPKNTLFLQMTSLRSEDTAMYFCARFYFGNSFDHWGQGTLVTVST
VL: DIVMTQSPSFLTVTAGEKVTMSCRSSQSLLNSGNQRNYLTWYQQKPGQPPKLLIYWASTRESGVPDRFTGSGSGTDFTLTINSVQAEDLALYYCQNAYSFPLTFGAGTKLELK
B7: 203A6D5 (antibody, V domains shown)
VH: QVQLKQSGPGLVQPSQSLSITCTVSGFSLTRYGVHWVRQSPGKGLEWLGVIWSGGNTDYNAAFISRLNIRKDNSKSQVFFKMNSLKPNDTAIYYCARAAYFGNSFDYWGQGTTLTVSS
VL: DIVMTQSPSSLPVTAGEKVTMSCKSSQSLLNSGNQKNYLTWYQQKPGQPPKLLIYWASTRDSGVPDRFTGSGSGTDFTLTISSVQAEDLAVYYCQNNYIYPLTFGAGTKLELK
B8: 426H6E11 (antibody, V domains shown)
VH: DVQLVESGGGLVQPGGSRKLSCAASGFTFSGFGMHWIRQTPEKGLEWVAYISSGSRPIYYADTVQGRFTISRDNPKNTLFLQMTSLRSEDTAMYFCARFYYGNSFDHWGQGTLVTVSS
VL: DIVMTQFPSFLTVTAGEKVTMSCKSSQTLLNSGNQKNYLTWYQQKPGQPPKLLIYWASTRESGVPDRFTGSGSGTDFTLTISSVQAEDLALYYCQNAYSFPLTFGAGTNLELK
B9: 420G10G3 (antibody, V domains shown)
VH: DVQLVESGGGLVQPGGSRKLSCAASGFTFSGFGMHWIRQTAEKGLEWVAYISSGSRPIYYADTVQGRFTISRDNPKNTLFLQMTSLRSEDTAMYFCARFYYGNSFDHWGQGTLVTVSA
VL: DIVMTQSPSFLTVTAGEKVTMSCKSSQSLLNSGNQKNYLTWYQQKPGQPPKLLIYWASTRESGVPDRFTGSGSGTDFTLTISSVQAEDLALYYCQNAYSFPLTFGAGTKLELK
B10: 422F4B6 (antibody, V domains shown)
VH: DVQLVESGGGLVQPGGSRKLSCAASGFSFSSFGMHWVRQAPEKGLEWVAYISSGSSPIYYADTVKGRFIISRDNPKNTLFLQMTSLRSEDTAMYFCARIYYGNSFAYWGQGTLVTVSA
VL: DIVMTQSPSSLTVTAGEKVTMSCKSSQTLLNSGNQKNYLTWYQQKPGQPPKLLIYWASTRESGVPDRFTGSGSGTDFTLTISSVQAEDLAVYYCQNAYSYPLTFGSGTKLELK
B11: 430B3F1 (antibody, V domains shown)
VH: DVQLVESGGGLVQPGGSRKLSCAASGFTFSGFGMHWIRQTPEKGLEWVAYISSGGRPIYYADTVQGRFTISRDNPKNTLFLQMTSLRSEDTAMYFCARFYYGNSFDHWGQGTLVTISS
VL: DIVMTQSPSFLTVTAGEKVTMSCKSSQSLLNSGNQKNYLTWYQQKPGQPPKLLIYWASTRESGVPDRFTGSGSGTDFTLTISSVQAEDLALYYCQNAYSFPLTFGAGTKLELK
B12: 426D9F6 (antibody, V domains shown)
VH: DVQLVESGGGLVQPGGSRKLSCAASGFTFSGFGMHWIRQTPEKGLEWVAYISSGSRPIYYADTVKGRFTISRDNPKNTLFLQMTSLRSEDTAMYFCARFYYGNSFDHWGQGTLVTVSA
VL: DIVMTQSPSFLTVTAGEKVTMSCKSSQSLLNSGNQRNYLTWYQQKPGQPPKLLIYWASTRESGVPDRFTGSGSGTDFTLTVSSVQAEDLALYYCQNAYSFPLTFGAGTKLELK
B13: 422E8F9 (antibody, V domains shown)
VH: DVQLVESGGGLVQPGGSRKLSCAASGFTFSGFGMHWIRQTPEKGLEWVAYISSGSRPIYYADTVQGRFTISRDNPKNTLFLQMTSLRSEDTAMYFCARFYYGNSFDHWGQGTLVTVSS
VL: DIVMTQSPSFLTVTAGEKVTMSCKSSQSLLNSGNQKNYLTWYQQKPGQPPKLLIYWASTRESGVPDRFTGSGSGTDFTLTISSVQAEDLALYYCQNAYSFPLTFGAGTKLELK
B14: 420F12G8 (antibody, V domains shown)
VH: DVQLVESGGGLVQPGGSRKLSCAASGFAFSGFGMHWIRQTPEKGLEWVAYISSGSRPIYYADTVKGRFTISRDNPKNTLFLQMTSLRSEDTAMYFCVRFYYGNSFDHWGQGTLVTVSA
VL: DIVMTQSPSFLTVTAGEKVTMTCRSSQNLLNSGNQKNYLTWYQQKPGQPPKLLISWASTRESGVPDRFTGSGSGTDFTLTISSVQPEDLALYYCQNAYSFPFTFGAGTKLELK
B15: 420H3H9 (antibody, V domains shown)
VH: DVQLVESGGGLVQPGGSRKLSCAASGFTFSSFGMHWVRQAPEKGLEWVAYISSGSSTIYYAHSVKGRFTISRDNPKNTLFLQMTSLGSEDTAMYYCARFYYGNSFAYWGQGTLVTVSA
VL: DIVMTQSPSSLTVTAGEKVTLSCKSSQSLLNSGNQKNYLTWYQQKPGQPPKMLIYWASTRESGVPDRFTGSGSGTDFTLTISSVQAEDLADYYCQNAYTYPLTFGAGTRLELK
B16: 425B3D5 (antibody, V domains shown)
VH: DVQLVESGGGLVQPGGSRKLSCAASGFTFSGFGMHWIRQTPEKGLEWVAYISSGSRPIYYADTVQGRFTISRDNPKNTLFLQMTSLRSEDTAMYFCARFYYGNSFDHWGQGTLVTVSS
VL: DIVMTQSPSFLTVTAGEKVTMSCKSSQSLLNSGNQKNYLTWYQQKPGQPPKLLIYWASTRESGVPDRFTGSGSGTDFTLTISSVQAEDLALYYCQNAYSFPLTFGAGTKLELK
B17: 425C6D3 (antibody, V domains shown)
VH: DVQLVESGGGLVQPGGSRKLSCAASGFTFSGFGMHWIRQTPEKGLEWVAYISSGSRPIYYADTVQGRFTISRDNPKNTLFLQMTSLRSEDTAMYFCARFYYGNSFDHWGQGTLVTVSS
VL: DIVMTQSPSFLTVTAGEKVTMSCKSSQSLLNSGNQKNYLTWYQQKPGQPPKLLIYWASTRESGVPDRFTGSGSGTDFTLTISSVQAEDLALYYCQNAYSFPLTFGAGTKLELK
B18: 420H7E6 (antibody, V domains shown)
VH: DVQLVESGGGLVQPGGSRKLSCVTSGFTFSSFGMHWIRQAPEKGLEWVAFISGGGSPIFYADSVKGRFTVSRDNPKNTLFLQMTGLRSEDTAMYFCARFYFGNSFAYWGQGTLVTVSA
VL: DIVMAQSPSSLTVTAGEKVTMNCRSSQSLFNSGNQKNYLTWYQQKPGQPPKLLIYWASTRESGVPVRFTGSGSGTDFTLTISSVQAEDLAVYYCQTGFSYPLTFGPGTKLELK
B19: 423C10E1 (antibody, V domains shown)
VH: DVQLVESGGGLVQPGGSRKLSCVTSGFTFSSFGMHWVRQAPEKGLEWVAFISGGGSPIFYADSVKGRFTVSRDNPKNTLFLQMTGLRSEDTAMYFCARFYFGNSFAYWGQGTLVTVSA
VL: DIVMTQSPSSLTVTAGEKVTMNCRSSQSLFNSGNQKNYLTWYQQKPGQSPKLLIYWASTRESGVPVRFTGSGSGTDFTLTISSVQAEDLAVYYCQTSFNYPLTFGPGTKLELK
B20: 207F8G5 (antibody, V domains shown)
VH: QAYLQQSGAELVRSGASVKMSCKASGFTFTSYNIHWVKQTPGQGLEWIGYISPGNGGSNYNLKFKDKATLTSATSSSTAYMQISSLTSEDSAVYFCATGRGFAYWGQGTLVTVSA
VL: DIVMTQSPSSLTVTPGEKVTMSCKSSQSLFNSGNQKNYLIWYQQKPGQPPKLLIYRASTRDSGVPDRFTGSGSGTDFTLTISNVQAEDLAIYYCQNDYSYPLTFGAGTKLELK
B21: 217D9G2 (antibody, V domains shown)
VH: QAYLQQSGAELVRSGASVKMSCKASGFTFTSYNIHWVKQTPGQGLEWIGYISPGNGGSNYNLNFKDKATLTAATSSTTAYMQISSLTSEDSAVYFCATGRGFAYWGQGTLVTVSA
VL: DIVMTQSPSSLTVTPGEKVTMSCRSSQSLFNSGNQKNYLIWYQQKPGQPPKLLIYRASTRDSGVPDRFTGSGSGTDFTLTISNVQAEDLAVYYCQNDYSYPLTFGAGTKLELK

This assay deals with Claudin18.2-His protein (human). Put plainly: indirect ELISA on coated Claudin18.2-His. (ELISA stands for enzyme-linked immunosorbent assay.)
B1: the EC50 (commonly the concentration giving half of the maximal effect) turned out to be 0.00319 µg/mL.
Molecule B2 registered a 50% effective concentration (EC50) of 0.03 µg/mL.
In the case of B3, the EC50 came out at 0.0351 µg/mL.
To B4 belongs 0.00266 µg/mL; to B5, 0.0239 µg/mL; to B6, 0.00753 µg/mL.
On to B7, for which the EC50 was determined as 0.0271 µg/mL.
B8 returned a 50% effective concentration (EC50) of 0.0224 µg/mL.
To B9 belongs 0.0113 µg/mL; to B10, 0.149 µg/mL.
Take B11: the EC50 stood at 0.0154 µg/mL.
Consider B12, for which the EC50 amounted to 0.0112 µg/mL.
As to B13, the EC50 worked out at 0.00873 µg/mL.
On to B14, for which the concentration for a half-maximal effect (EC50) amounted to 0.0176 µg/mL.
To B15 belongs 0.00722 µg/mL.
For B16, the half-maximal effective concentration (EC50) turned out to be 0.0037 µg/mL.
With B17 the figure was 0.0114 µg/mL; with B18, 0.0545 µg/mL; with B19, 0.0297 µg/mL.
With B20, the EC50 was 0.0335 µg/mL.
In turn, B21 yielded a 50% effective concentration (EC50) of 0.028 µg/mL.
